We go through five molecules from paper PMC5314169, “Structure of the Branched-chain Amino Acid and GTP-sensing Global Regulator, CodY, from Bacillus subtilis*” (The Journal of Biological Chemistry, 2016).

For data set [1], the target named is CodY(L3S), leucine 3 to serine mutant of CodY from Bacillus subtilis (Bacillus subtilis) (UniProt P39779). Nature of the data set: crystal structure; CodY(L3S) at 18 mg/ml with 20 mM isoleucine; 15% PEG 5000, 5% tacsimate, 0.1 M HEPES pH 7.5; four molecules per asymmetric unit.
In data set [2] the target is T1, CodY (wild type, C-terminal His5) (Bacillus subtilis, UniProt P39779 2-259).
T1 sequence: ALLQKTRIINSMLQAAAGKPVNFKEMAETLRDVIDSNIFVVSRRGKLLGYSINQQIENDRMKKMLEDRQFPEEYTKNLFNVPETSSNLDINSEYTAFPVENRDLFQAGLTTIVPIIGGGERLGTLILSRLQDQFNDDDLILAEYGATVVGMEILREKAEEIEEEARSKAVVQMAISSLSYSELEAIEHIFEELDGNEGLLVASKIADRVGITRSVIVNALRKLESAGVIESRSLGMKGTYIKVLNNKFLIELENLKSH
Kind of data set: EMSA; 10 mM Ile/Leu/Val; apparent Kd, CodY monomer; C2 predominant; EMSA: 20 mM Tris-Cl pH 8.0, 50 mM KCl, 2 mM MgCl2, 5% glycerol, 0.5 mM EDTA, 1 mM DTT, 0.05% Nonidet P, salmon sperm DNA (printed 40-25 ug/ml), room temperature 16 min, +/-10 mM ILV. As to conditions: protein: recombinant, tags: C-terminal His5, chain copies: 2, blunt. On the technique in general: Mobility shift assays separate free from complexed probe on a gel.

Data set [3] concerns the molecule itself. Nature of the data set: crystal structure; unliganded CodY, three crystal forms (A, B, C) grown from 10-20 mg/ml protein; form B with 10 mM GTP and form C with 5 mM GTPgammaS present but not seen bound; tetramer in all forms.
Data set [4] deals with the molecule itself. Nature of the data set: SEC-MALLS; 100 ul of 1 mg/ml (~35 uM) protein on Superdex S200 10/300 in 50 mM Tris-HCl pH 7.5, 150 mM NaCl, with or without 10 mM isoleucine (no effect on the trace); no tetramers seen.
Data set [5] concerns the target T1, CodY (wild type, C-terminal His5). Kind of data set: EMSA; 10 mM Ile/Leu/Val; only C1 complex; EMSA: 20 mM Tris-Cl pH 8.0, 50 mM KCl, 2 mM MgCl2, 5% glycerol, 0.5 mM EDTA, 1 mM DTT, 0.05% Nonidet P, salmon sperm DNA (printed 40-25 ug/ml), room temperature 16 min, +/-10 mM ILV. As to conditions: protein: recombinant; tags: C-terminal His5; chain copies: 2; label: 32P 5' on one strand; blunt.

In general, stoichiometry N refers to a count of units in the complex or per binding partner. For “CodY(L3S), leucine 3 to serine mutant of CodY from Bacillus subtilis (from UniProt P39779 1-259) (natural protein)”, the stoichiometry N in data set [1] worked out at 4.

B1: BcaPp8(31) (dsDNA)
DNA 1: TAAAAAATTTGTCGAATTTTCTGAAAATTTT
DNA 2: AAAATTTTCAGAAAATTCGACAAATTTTTTA
Consider B1, for which the Kd in data set [2] (label: 32P 5' on one strand) came to 1.6 nM.

B2: CodY from Bacillus subtilis, full-length, wild type (natural protein)
chain: GPAMALLQKTRIINSMLQAAAGKPVNFKEMAETLRDVIDSNIFVVSRRGKLLGYSINQQIENDRMKKMLEDRQFPEEYTKNLFNVPETSSNLDINSEYTAFPVENRDLFQAGLTTIVPIIGGGERLGTLILSRLQDQFNDDDLILAEYGATVVGMEILREKAEEIEEEARSKAVVQMAISSLSYSELEAIEHIFEELDGNEGLLVASKIADRVGITRSVIVNALRKLESAGVIESRSLGMKGTYIKVLNNKFLIELENLKSH
notes: what is left of the tag after cleavage with human rhinovirus 3C protease, printed as Gly-Pro-Ala; CodY, Bacillus subtilis, 259 amino acid residues, calculated mass 29 kDa; construct pET-YSBLIC-BsCodY; also called unliganded CodY; wild-type CodY; source: E. coli BL21(DE3), purified (nickel chelation, 3C protease cleavage, second nickel column, heparin, Superdex 200); not shown: polyhistidine, …
Consider B2, for which the “stoichiometry N” value in data set [3] was determined as 4; in data set [4], 2.

B3: BcaPp8(36) (dsDNA)
DNA 1: CAAAATAAAAAATTTGTCGAATTTTCTGAAAATTTT
DNA 2: AAAATTTTCAGAAAATTCGACAAATTTTTTATTTTG
Consider B3, for which the Kd in data set [2] (label: 32P 5' on one strand in EMSA) stood at 1.6 nM.

B4: BcaPp8(19) (dsDNA)
DNA 1: CGAATTTTCTGAAAATTTT
DNA 2: AAAATTTTCAGAAAATTCG
As for B4, the binding result in data set [5] is “binds”.
